Test results from PMC10397247.

Assays:
[1] = target: T1, 4H3907-bA; assay: two-hybrid library CCNG1;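 also: natural log of median RNA to DNA barcode read ratio; higher means stronger binding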
T1 chain: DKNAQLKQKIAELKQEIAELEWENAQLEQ

[2] = target: T2, 4H3592-bA; assay: two-hybrid library CCNG1;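 also: natural log of median RNA to DNA barcode read ratio; higher means stronger binding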
T2 chain: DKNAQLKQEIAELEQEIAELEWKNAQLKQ

[3] = target: T3, P4A-bH; assay: two-hybrid library CCNG1;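 also: natural log of median RNA to DNA barcode read ratio; higher means stronger binding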
T3 chain: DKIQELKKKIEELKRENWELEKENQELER

[4] = target: T4, 4H3601-bA; assay: two-hybrid library CCNG1;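 also: natural log of median RNA to DNA barcode read ratio; higher means stronger binding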
T4 chain: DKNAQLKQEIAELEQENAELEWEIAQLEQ

[5] = target: T5, 4H4038-bA; assay: two-hybrid library CCNG1;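 also: natural log of median RNA to DNA barcode read ratio; higher means stronger binding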
T5 chain: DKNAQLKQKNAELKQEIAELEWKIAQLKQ

[6] = target: T6, 4H2620-AA; assay: two-hybrid library CCmax; details: mean of both orientations;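 also: natural log of median RNA to DNA barcode read ratio; higher means stronger binding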
T6 chain: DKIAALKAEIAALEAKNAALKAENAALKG

[7] = target: T7, 4H1874-AA; assay: two-hybrid library CCmax; details: mean of both orientations
T7 chain: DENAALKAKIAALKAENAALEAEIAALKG

[8] = target: T8, 4H3162-AA; assay: two-hybrid library CCmax; details: mean of both orientations
T8 chain: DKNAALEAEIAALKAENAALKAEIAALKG

[9] = target: T9, 4H1845-AA; assay: two-hybrid library CCmax; details: mean of both orientations
T9 chain: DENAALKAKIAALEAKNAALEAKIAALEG

[10] = target: T10, 4H3865-AA; assay: two-hybrid library CCmax; details: mean of both orientations
T10 chain: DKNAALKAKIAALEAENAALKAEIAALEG

[11] = target: T11, 4H3718-AA; assay: two-hybrid library CCmax; details: mean of both orientations
T11 chain: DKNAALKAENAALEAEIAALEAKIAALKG

[12] = target: T12, 4H1629-AA; assay: two-hybrid library CCmax; details: mean of both orientations
T12 chain: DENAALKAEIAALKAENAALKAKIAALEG

[13] = target: T13, 4H982-AA; assay: two-hybrid library CCmax; details: mean of both orientations
T13 chain: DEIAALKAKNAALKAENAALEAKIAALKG

[14] = target: T14, 4H1401-AA; assay: two-hybrid library CCmax; details: mean of both orientations
T14 chain: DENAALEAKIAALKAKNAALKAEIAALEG

[15] = target: T15, 4H3133-AA; assay: two-hybrid library CCmax; details: mean of both orientations
T15 chain: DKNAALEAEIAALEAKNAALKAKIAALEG

[16] = target: T16, 4H3606-AA; assay: two-hybrid library CCmax; details: mean of both orientations
T16 chain: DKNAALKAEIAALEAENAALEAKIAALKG

[17] = target: T17, 4H3378-AA; assay: two-hybrid library CCmax; details: mean of both orientations
T17 chain: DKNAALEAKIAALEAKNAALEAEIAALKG

[18] = target: T18, 4H1594-AA; assay: two-hybrid library CCmax; details: mean of both orientations
T18 chain: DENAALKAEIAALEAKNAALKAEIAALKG

[19] = target: T19, 4H3588-AA; assay: two-hybrid library CCmax; details: mean of both orientations
T19 chain: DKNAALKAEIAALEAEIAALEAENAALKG

[20] = target: T20, 4H3697-AA; assay: two-hybrid library CCmax; details: mean of both orientations
T20 chain: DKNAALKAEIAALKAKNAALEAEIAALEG

[21] = target: T21, 4H1513-AA; assay: two-hybrid library CCmax; details: mean of both orientations
T21 chain: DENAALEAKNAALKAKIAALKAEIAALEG

[22] = target: T22, 4H3056-AA; assay: two-hybrid library CCmax; details: mean of both orientations
T22 chain: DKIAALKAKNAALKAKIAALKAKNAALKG

[23] = target: T23, 4H384-AA; assay: two-hybrid library CCmax; details: mean of both orientations
T23 chain: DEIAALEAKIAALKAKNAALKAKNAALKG

[24] = target: T24, 4H340-AA; assay: two-hybrid library CCmax; details: mean of both orientations
T24 chain: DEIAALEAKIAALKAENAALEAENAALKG

[25] = target: T25, 4H2648-AA; assay: two-hybrid library CCmax; details: mean of both orientations
T25 chain: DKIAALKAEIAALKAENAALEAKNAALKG

[26] = target: T26, 4H697-AA; assay: two-hybrid library CCmax; details: mean of both orientations
T26 chain: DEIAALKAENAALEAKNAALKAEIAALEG

[27] = target: T27, 4H2553-AA; assay: two-hybrid library CCmax; details: mean of both orientations
T27 chain: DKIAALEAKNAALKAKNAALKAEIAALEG

[28] = target: T28, 4H2198-AA; assay: two-hybrid library CCmax; details: mean of both orientations
T28 chain: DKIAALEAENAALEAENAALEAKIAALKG

[29] = target: T29, 4H3413-AA; assay: two-hybrid library CCmax; details: mean of both orientations
T29 chain: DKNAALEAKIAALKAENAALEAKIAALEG

[30] = target: T30, 4H1388-AA; assay: two-hybrid library CCmax
T30 chain: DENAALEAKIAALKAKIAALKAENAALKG

[31] = target: T31, 4H32-AA; assay: two-hybrid library CCmax; details: mean of both orientations
T31 chain: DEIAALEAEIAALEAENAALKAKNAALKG

[32] = target: T32, 4H2611-AA; assay: two-hybrid library CCmax; details: mean of both orientations
T32 chain: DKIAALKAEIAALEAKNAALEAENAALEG

[33] = target: T33, 4H2907-AA; assay: two-hybrid library CCmax; details: mean of both orientations
T33 chain: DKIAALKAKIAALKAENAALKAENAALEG

[34] = target: T34, 4H3631-AA; assay: two-hybrid library CCmax; details: mean of both orientations
T34 chain: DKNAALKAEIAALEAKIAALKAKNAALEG

Work on DKNAQLKQEIAELEQEIAELEWKNAQLKQ [4H3592-bA] yielded an interaction score [1] of 0.467, an interaction score [2] of -0.131 and an interaction score [3] of 1.36. For the same binder, the interaction score [4] was -0.03 and the interaction score [5] was -0.458.

Binder DENAALEAKIAALKAKIAALKAENAALKG [4H1388-AA] has an interaction score [6] of -0.0212, an interaction score [7] of -1.59 and an interaction score [8] of -1.45. The interaction score [9] was -1.71, the interaction score [10] was -1.23 and the interaction score [11] was -0.0337. It also gave an interaction score [12] of -1.24, an interaction score [13] of -2.08 and an interaction score [14] of -2. For the same binder, the interaction score [15] was -1.57, the interaction score [16] was 0.583 and the interaction score [17] was -1.68. The interaction score [18] was -1.66, the interaction score [19] was 2.13 and the interaction score [20] was -1.77. The interaction score [21] was -0.0302, the interaction score [22] was -1.68 and the interaction score [23] was -0.356. For the same binder, the interaction score [24] was -0.251, the interaction score [25] was -0.194 and the interaction score [26] was -1.54. The interaction score [27] was -1.78, the interaction score [28] was -1.08 and the interaction score [29] was -1.7. For the same binder, the interaction score [30] was -0.698, the interaction score [31] was 2.52 and the interaction score [32] was -0.829. For the same binder, the interaction score [33] was -0.775 and the interaction score [34] was 0.242.
